The values below come from article PMC5667929, “Combinatorial action of Grainyhead, Extradenticle and Notch in regulating Hox mediated apoptosis in Drosophila larval CNS”.

For data set [1], the target named is AbdA (Hox);Grh (Drosophila melanogaster?;Drosophila …, UniProt P29555;P13002 261-590;551-1333, |). Put plainly: EMSA; EMSA, 20 ul, 30 min, room temperature; 5X buffer as printed: 20% glycerol, 1 mg/ml BSA, 2.5 mM EDTA, '50mM 1M tris' pH 7.5, 50 mM KCl, 5 mM MgCl2, 2.5 mM DTT, 90 ug/ml poly(dI-dC); proteins 100-200 ng. The note with it: protein: recombinant;recombinant; tags: 6xHis;6xHis; copies: 1;2.

In data set [2] the target is T1, AbdA (Hox);Exd/Hth-HM;Grh (Drosophila melanogaster?;Drosophila …, UniProt P29555;P40427;O46339;P13002 261-590;1-376;127-211;551-1333, ||). The data set is described as above. The note with it: protein: recombinant;recombinant;recombinant; tags: 6xHis;6xHis;6xHis; copies: 1;1;1;2.
Target sequence in this assay (P29555 261-590, chain 1 of 4, one chain of several): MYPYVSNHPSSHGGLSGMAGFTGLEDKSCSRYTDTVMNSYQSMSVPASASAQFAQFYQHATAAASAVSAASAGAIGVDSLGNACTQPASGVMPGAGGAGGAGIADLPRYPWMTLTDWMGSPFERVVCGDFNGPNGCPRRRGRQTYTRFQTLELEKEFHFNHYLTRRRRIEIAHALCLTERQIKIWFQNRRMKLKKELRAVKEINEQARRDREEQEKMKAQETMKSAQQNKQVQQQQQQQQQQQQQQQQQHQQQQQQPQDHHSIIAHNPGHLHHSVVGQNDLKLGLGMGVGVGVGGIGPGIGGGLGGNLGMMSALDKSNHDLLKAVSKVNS
Target sequence in this assay (P13002 551-1333, chain 4 of 4, one chain of several): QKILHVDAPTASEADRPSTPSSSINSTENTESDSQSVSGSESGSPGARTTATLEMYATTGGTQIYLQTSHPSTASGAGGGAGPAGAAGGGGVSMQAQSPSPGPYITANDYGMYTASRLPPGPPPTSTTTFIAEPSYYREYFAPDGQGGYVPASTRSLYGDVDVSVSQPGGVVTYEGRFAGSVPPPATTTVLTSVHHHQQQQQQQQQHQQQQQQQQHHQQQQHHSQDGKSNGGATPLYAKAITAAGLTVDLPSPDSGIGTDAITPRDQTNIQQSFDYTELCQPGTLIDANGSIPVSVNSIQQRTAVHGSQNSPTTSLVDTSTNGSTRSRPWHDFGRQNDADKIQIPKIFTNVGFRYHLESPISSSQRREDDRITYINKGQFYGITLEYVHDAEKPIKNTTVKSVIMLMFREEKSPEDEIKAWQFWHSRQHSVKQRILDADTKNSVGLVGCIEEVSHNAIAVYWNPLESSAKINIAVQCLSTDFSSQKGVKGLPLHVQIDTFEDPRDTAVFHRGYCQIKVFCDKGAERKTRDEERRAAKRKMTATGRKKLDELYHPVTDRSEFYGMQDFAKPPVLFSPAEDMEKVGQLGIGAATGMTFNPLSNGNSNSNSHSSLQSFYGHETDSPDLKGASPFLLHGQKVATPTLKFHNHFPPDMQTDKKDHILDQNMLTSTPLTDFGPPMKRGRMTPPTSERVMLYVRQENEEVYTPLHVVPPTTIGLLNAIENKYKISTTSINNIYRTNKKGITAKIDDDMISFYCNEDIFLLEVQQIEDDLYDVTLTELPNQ
Data set [3] concerns the target T2, AbdA (Hox);Exd/Hth-HM (Drosophila melanogaster?;Drosophila …, UniProt P29555;P40427;O46339 261-590;1-376;127-211, |). Described as above. The note with it: protein: recombinant;recombinant; tags: 6xHis;6xHis; copies: 1;1;1.
The target of data set [4] is T3, Grh (UniProt P13002 551-1333). The data set is described as above. To be noted: protein: recombinant; tags: 6xHis; chain copies: 2.
For data set [5], the target named is T4, AbdA (Hox) (UniProt P29555 261-590). Described as above. The note with it: protein: recombinant; tags: 6xHis.
Data set [6] has as its target T4, AbdA (Hox). Put plainly: EMSA; 100 and 200 ng; EMSA, 20 ul, 30 min, room temperature; 5X buffer as printed: 20% glycerol, 1 mg/ml BSA, 2.5 mM EDTA, '50mM 1M tris' pH 7.5, 50 mM KCl, 5 mM MgCl2, 2.5 mM DTT, 90 ug/ml poly(dI-dC); proteins 100-200 ng. The note with it: protein: recombinant; tags: 6xHis.
The target in data set [7] is T5, Exd/Hth-HM (UniProt P40427;O46339 1-376;127-211).
T5 sequence 1: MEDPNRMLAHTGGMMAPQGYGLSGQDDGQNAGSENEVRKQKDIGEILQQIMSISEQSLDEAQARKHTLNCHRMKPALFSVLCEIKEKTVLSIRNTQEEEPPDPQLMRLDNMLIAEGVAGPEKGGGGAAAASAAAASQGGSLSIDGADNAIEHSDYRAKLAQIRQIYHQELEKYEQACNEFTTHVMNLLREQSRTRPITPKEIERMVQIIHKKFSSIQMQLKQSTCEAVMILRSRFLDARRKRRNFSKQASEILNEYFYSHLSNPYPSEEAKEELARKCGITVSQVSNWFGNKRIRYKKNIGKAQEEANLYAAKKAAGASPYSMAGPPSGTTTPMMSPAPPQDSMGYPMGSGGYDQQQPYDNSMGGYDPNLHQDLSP
T5 sequence 2: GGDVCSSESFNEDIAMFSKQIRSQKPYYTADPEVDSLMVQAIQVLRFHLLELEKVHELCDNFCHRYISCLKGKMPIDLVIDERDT
Put plainly: EMSA; 200 ng; another sentence claims strong binding of each protein; EMSA, 20 ul, 30 min, room temperature; 5X buffer as printed: 20% glycerol, 1 mg/ml BSA, 2.5 mM EDTA, '50mM 1M tris' pH 7.5, 50 mM KCl, 5 mM MgCl2, 2.5 mM DTT, 90 ug/ml poly(dI-dC); proteins 100-200 ng. The note with it: protein: recombinant; tags: 6xHis; copies: 1;1.

For data set [8], the target named is T2, AbdA (Hox);Exd/Hth-HM. Put plainly: EMSA; intact in text; slightly reduced per legend; EMSA, 20 ul, 30 min, room temperature; 5X buffer as printed: 20% glycerol, 1 mg/ml BSA, 2.5 mM EDTA, '50mM 1M tris' pH 7.5, 50 mM KCl, 5 mM MgCl2, 2.5 mM DTT, 90 ug/ml poly(dI-dC); proteins 100-200 ng. To be noted: protein: recombinant;recombinant; tags: 6xHis;6xHis; copies: 1;1;1.
Target sequence in this assay (P29555 261-590, one chain of several): as the sequence (P29555 261-590, chain 1 of 4, one chain of several) above

In data set [9] the target is T5, Exd/Hth-HM. Put plainly: EMSA; EMSA, 20 ul, 30 min, room temperature; 5X buffer as printed: 20% glycerol, 1 mg/ml BSA, 2.5 mM EDTA, '50mM 1M tris' pH 7.5, 50 mM KCl, 5 mM MgCl2, 2.5 mM DTT, 90 ug/ml poly(dI-dC); proteins 100-200 ng. To be noted: protein: recombinant; tags: 6xHis; copies: 1;1.
The target in data set [10] is T1, AbdA (Hox);Exd/Hth-HM;Grh. Put plainly: EMSA; intact; slightly reduced intensity per legend; EMSA, 20 ul, 30 min, room temperature; 5X buffer as printed: 20% glycerol, 1 mg/ml BSA, 2.5 mM EDTA, '50mM 1M tris' pH 7.5, 50 mM KCl, 5 mM MgCl2, 2.5 mM DTT, 90 ug/ml poly(dI-dC); proteins 100-200 ng. To be noted: protein: recombinant;recombinant;recombinant; tags: 6xHis;6xHis;6xHis; copies: 1;1;1;2.
Target sequence in this assay (P29555 261-590, chain 1 of 2): as the sequence (P29555 261-590, chain 1 of 4, one chain of several) above
Target sequence in this assay (P13002 551-1333, chain 4 of 2): as the sequence (P13002 551-1333, chain 4 of 4, one chain of several) above

Data set [11] addresses T3, Grh. Put plainly: EMSA; no significant decrease; EMSA, 20 ul, 30 min, room temperature; 5X buffer as printed: 20% glycerol, 1 mg/ml BSA, 2.5 mM EDTA, '50mM 1M tris' pH 7.5, 50 mM KCl, 5 mM MgCl2, 2.5 mM DTT, 90 ug/ml poly(dI-dC); proteins 100-200 ng. The note with it: protein: recombinant; tags: 6xHis; chain copies: 2.

T3 sequence (P13002 551-1333): as the sequence (P13002 551-1333, chain 4 of 4, one chain of several) above
AbdA (Hox);Grh, sequence (P29555 261-590, chain 1 of 2): as the sequence (P29555 261-590, chain 1 of 4, one chain of several) above
AbdA (Hox);Grh, sequence (P13002 551-1333, chain 2 of 2): as the sequence (P13002 551-1333, chain 4 of 4, one chain of several) above
T4 sequence (P29555 261-590): as the sequence (P29555 261-590, chain 1 of 4, one chain of several) above

B1: motif-30 Exd mutant (dsDNA)
DNA 1: GAAACAGGATAACCATAACTGCTCC
DNA 2: GGAGCAGTTATGGTTATCCTGTTTC
For the molecule B1, the binding result in [1] is on record as “binds”; in data set [2] it was “no binding”; in data set [3], “no binding”; in data set [4], “binds”.

B2: motif-30 Hox1+2 mutant (dsDNA)
DNA 1: GAAACAGGAGAACCAGGACTAATCC
DNA 2: GGATTAGTCCTGGTTCTCCTGTTTC
For the molecule B2, the binding result in data set [1], in [2], in data set [3] and in data set [5] was “no binding” throughout.

B3: motif-30 WT (dsDNA)
DNA 1: GAAACAGGATAACCATAACTAATCC
DNA 2: GGATTAGTTATGGTTATCCTGTTTC
Turning to B3, the binding result in data set [1] was “binds”; in [2], “binds”; in data set [3] it was “binds”; in [4], “binds”; in data set [6], “binds”; in [7], “no binding”.

B4: motif-29 (Hox-Exd consensus) (dsDNA)
DNA 1: CTCAAGCGCGTGATGAATGTAATCTTCG
DNA 2: CGAAGATTACATTCATCACGCGCTTGAG
For the molecule B4, the binding result in data set [3] is on record as “binds”; in data set [4], “no binding”.

B5: motif-28 (dsDNA)
DNA 1: AAGCCGAGCCTGAATCAGGTACTCAAATTGTCGC
DNA 2: GCGACAATTTGAGTACCTGATTCAGGCTCGGCTT
In the case of B5, the binding result is “binds” in data set [1], “no binding” in [2], “binds” in data set [3] and “binds” in [4].

B6: motif-27 (dsDNA)
DNA 1: TATATGTGGAACCACCTTGAAAGTCTACTGCCTGATTAGT
DNA 2: ACTAATCAGGCAGTAGACTTTCAAGGTGGTTCCACATATA
Consider B6, for which the binding result in data set [2], in [3] and in [4] was “binds” throughout.

B7: motif-31 (dsDNA)
DNA 1: ACACAATTTTCTAAGATCCACTGGAATCGGTATGCCGATAGTT
DNA 2: AACTATCGGCATACCGATTCCAGTGGATCTTAGAAAATTGTGT
Turning to B7, the binding result in data set [2] is listed as “no binding”; in data set [3], “binds”; in data set [4], “binds”; in data set [5], “binds”.

B8: motif-30 Hox1 mutant (dsDNA)
DNA 1: GAAACAGGAGAACCATAACTAATCC
DNA 2: GGATTAGTTATGGTTCTCCTGTTTC
For B8, the binding result in data set [8] is given as “binds”.

B9: motif-25 (dsDNA)
DNA 1: CGGGATATCACCAAACCATAGAAAATTTGCGGTACA
DNA 2: TGTACCGCAAATTTTCTATGGTTTGGTGATATCCCG
With B9, the binding result is recorded as “no binding” in data set [2], “binds” in [3] and “binds” in [4].

B10: motif-33 (dsDNA)
DNA 1: TACTGCCTGATTAGTGTAAATAATTGCCAGTCCTTG
DNA 2: CAAGGACTGGCAATTATTTACACTAATCAGGCAGTA
As to B10, the binding result in [1] is “binds”; in [2], “no binding”; in [3] it was “binds”; in [9] it was “binds”; in [4], “binds”; in [5] it was “binds”.

B11: motif-32 (dsDNA)
DNA 1: TTGCATGTGCGGATATATATATGTGGAACCACCTTG
DNA 2: CAAGGTGGTTCCACATATATATATCCGCACATGCAA
Consider B11, for which the binding result in [2], in data set [3], in [9] and in [4] was “binds” throughout.

B12: motif-30 Grh2 mutant (dsDNA)
DNA 1: GAAACAGGATAACGATAACTAATCC
DNA 2: GGATTAGTTATCGTTATCCTGTTTC
For B12, the binding result in data set [10] and in data set [11] was “binds” in each case.

B13: motif-23 (dsDNA)
DNA 1: CTATTATCACTATTGCTTTGCTTCCTCAAAACCTTCATTCGA
DNA 2: TCGAATGAAGGTTTTGAGGAAGCAAAGCAATAGTGATAATAG
Take B13: the binding result in [3] and in data set [4] was “binds” each time.
